The source of these data is patent publication US20260028422A1 (CONCEPT TO MEDICINE BIOTECH, published 2026).

Assay [1] deals with T1, human MerTK expressed on cells (human, UniProt Q12866 21-999).
T1 construct: whole, on cells; also called CHO-K1-hMerTK; CHO-K1-MerTK
T1 sequence (looked up): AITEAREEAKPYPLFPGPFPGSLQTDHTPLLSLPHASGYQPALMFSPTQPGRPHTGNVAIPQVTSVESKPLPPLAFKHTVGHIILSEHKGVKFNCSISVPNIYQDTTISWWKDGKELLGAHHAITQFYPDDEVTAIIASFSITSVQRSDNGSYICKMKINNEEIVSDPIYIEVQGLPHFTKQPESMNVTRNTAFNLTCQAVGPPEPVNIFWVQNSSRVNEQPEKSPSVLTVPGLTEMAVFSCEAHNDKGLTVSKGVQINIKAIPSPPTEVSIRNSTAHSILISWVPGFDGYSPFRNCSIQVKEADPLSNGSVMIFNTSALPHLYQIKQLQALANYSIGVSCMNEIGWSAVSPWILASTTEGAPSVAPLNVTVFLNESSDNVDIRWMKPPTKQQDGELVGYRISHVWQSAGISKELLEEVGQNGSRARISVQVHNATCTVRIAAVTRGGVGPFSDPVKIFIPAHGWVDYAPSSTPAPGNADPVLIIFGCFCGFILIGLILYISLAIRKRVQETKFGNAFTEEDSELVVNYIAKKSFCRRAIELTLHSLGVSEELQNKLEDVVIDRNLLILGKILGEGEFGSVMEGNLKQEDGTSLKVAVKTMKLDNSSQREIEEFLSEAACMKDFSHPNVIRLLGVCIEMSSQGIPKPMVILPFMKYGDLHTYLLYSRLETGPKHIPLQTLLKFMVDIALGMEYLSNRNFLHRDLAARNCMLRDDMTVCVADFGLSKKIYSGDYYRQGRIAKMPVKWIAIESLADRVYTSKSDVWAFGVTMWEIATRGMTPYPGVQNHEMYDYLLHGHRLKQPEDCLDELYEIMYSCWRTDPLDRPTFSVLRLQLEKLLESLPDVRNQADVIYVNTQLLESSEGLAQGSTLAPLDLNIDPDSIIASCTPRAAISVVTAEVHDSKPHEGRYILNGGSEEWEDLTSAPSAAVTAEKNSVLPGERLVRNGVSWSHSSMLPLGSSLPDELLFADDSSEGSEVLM
In words: FACS on CHO-K1 cells overexpressing human MerTK, MFI (PE). As to the method:
To evaluate the binding property to the antigen expressed on the cells, the chimeric monoclonal antibodies were analyzed for their binding to human MerTK overexpressed on CHO-K1 cells by FACS. Briefly, human MerTK overexpressing CHO-K1 (CHO-K1-MerTK) cells were firstly incubated with 5-fold serially diluted mAbs starting at 20 nM at 4° C. for 1 hour. After washing with FACS buffer, the PE conjugated anti-human IgG-Fc secondary antibody was added to each well and incubated at 4° C., for 30 mins. The mean fluorescence intensity (MFI) of PE were evaluated by QuantAnalyzer 16.

A further assay concerns the target T2, human MerTK-his protein (human, UniProt Q12866 21-505).
T2 construct: extracellular domain; also called hMerTK-His; human MerTK protein
T2 sequence (looked up): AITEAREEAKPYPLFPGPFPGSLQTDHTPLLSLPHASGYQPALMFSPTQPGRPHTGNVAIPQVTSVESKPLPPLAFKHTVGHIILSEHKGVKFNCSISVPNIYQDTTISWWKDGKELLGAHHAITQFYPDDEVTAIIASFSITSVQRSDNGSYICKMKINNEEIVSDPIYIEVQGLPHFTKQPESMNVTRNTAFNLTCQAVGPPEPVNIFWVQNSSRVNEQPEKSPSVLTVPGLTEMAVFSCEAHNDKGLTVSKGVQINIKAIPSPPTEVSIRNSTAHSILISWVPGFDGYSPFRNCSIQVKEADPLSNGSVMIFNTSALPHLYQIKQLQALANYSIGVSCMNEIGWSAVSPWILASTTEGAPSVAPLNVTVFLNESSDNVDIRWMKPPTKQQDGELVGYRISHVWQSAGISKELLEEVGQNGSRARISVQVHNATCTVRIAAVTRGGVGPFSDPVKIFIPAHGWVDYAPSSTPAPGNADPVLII
Description: ELISA, plate coated with human MerTK-his, anti-human IgG Fc-HRP, OD 450nm.

B1: h13B4.v16 benchmark antibody (antibody, V domains shown)
VH: EVQLVESGEGLVQPGGSLRLSCAASGFSLSSYAMGWVRQAPGKGLEYVGIINSYGNTYYANWAKGRFTISRDNSKNTVYLQMGSLRAEDMAVYYCARDPGVSSNLWGRGTLVTVSS
VL: DIQMTQSPSTLSASVGDRVTITCQASQNIYSGLAWYQQKPGKAPKLLIYGASKLASGVPSRFSGSGSGTEFTLTISSLQPDDFATYYCQATYYSSNSVAFGGGTKVEIK
For orientation: EC50 means the concentration needed to bring the measured effect to its halfway point. Take B1: in assay [1], the concentration giving a half-maximal response (EC50) turned out to be 0.17 nM and the Top is 5920 MFI (PE). This molecule also gave an EC50 in the assay with human MerTK-his protein of 0.027 nM.
